# Results published in patent US20240239875A1 (CURIA IP, published 2024).
# B1: 7-D7-A (antibody, V domains shown)
# VH: QVQLKESGPGLVAPSQSLSITCTVSGFSLTSYAISWVRQPPGKGLEWLGVIWPGGGTNYNSALKSRLSISKDNSKSQVFLKMNSLQTDDTAKYYCARTGYYFDYWGQGTTLTVSS
# VL: QLILTQSPAIMSASPGEKVTMTCSASLSVNYMYWFQQKPGTSPKRWIHDTSKLASGVPARFSGSGSGTSYSLTISSMEAEDAATYYCQQWSSNPPMYTFGGGTKLEIK
# B2: 8-A17-A (antibody, V domains shown)
# VH: QVQLKESGPGLVAPSQSLSITCTVSGFSLTSYAISWVRQPPGKGLEWLGVVWPGGGTNYNSALKSRLSINKDNSKSQVFLKMNSLQTDDTGRYYCARTGYHFDYWGQGTTLTVSS
# VL: QIVLTQSPAIMSASPGEKVTMTCSVSSSVSYMHWYQQKSGTSPKRWIYDTSKLASGVPARFSGSGSGTSYSLTISSMEAEDAATYYCQQWSSNPPMYTFGGGTKLEIK
# B3: 2-G20-A (antibody, V domains shown)
# VH: EVQLQQSGPELVKPGASVKMSCKASGYTFPSYVLHWVKQKPGQGLEWIGYIYPYNDGTNYNEKFKGKATLTSDKSSSTAYMELSSLTSEDSAVYYCARGDYGDSAWFPYWGQGTLVTVSA
# VL: DIVLTQSPASLAVSLGQRATISCRASKSVSTSGYSYMHWYQQKPGQPPKLLIYLASNLKSGVPARFSGGGSGTDFTLNIHPVEEEDAATYYCQLSRELPWTFGGGTKLEIK
# B4: 1-L10-A (antibody, V domains shown)
# VH: EVKLEESGGGLVQPGGSMKLSCVASGFTFNNYWMNWVRQSPEKGLEWVAQMRLKSDNYATHYAESVKGRFTISRDDSKSSVYLQMNNLRAEDTGIYYCIEGYWTYWGQGTLVTVSA
# VL: QIVLTQSPAIMSASLGERVTMTCTASSSVSSSYLHWYQQKPGSSPKLWIYSTSNLASGVPARFSGNGSGTSYSLTISSMEAEDAATYYCLQYHRSPPYTFGGGTKLEIK
# B5: 9-F6-A (antibody, V domains shown)
# VH: EVQLQQSGPELVKPGASVKMSCKASGYTFTSYIMHWVKQKPGQGLEWIGYILPYNDGTKYNEKFKGKATLTSDKSSSTAYMELRSLTSEDSAVYYCARWGYSNFLDSWGQGTTLTVSS
# VL: DIQMTQTTSSLSASLGDRVTISCRASQDINNYLNWYQQKPDGTVKLLIYYTSRLHSGVPSRFSGSGSGTDYSLTIRNLEQEDIATYFCQQGNTLPPTFGGGTKLEIK
# B6: 6-O12-A (antibody, V domains shown)
# VH: QVQLQQPGTELVKPGASVKLSCKASGYTFTSYWMHWVKQRPGQGLEWIGNINPSNGGTNYNEKFRSKATLTVDKSSSTAYMQLSSLTSEDSAVYYCARLGWFLPLGSWGQGTTLTVSS
# VL: QIVLTQSPAIMSASLGEVITLTCSASSSVSYMHWYQQKSGTSPKLLIYSTSNLASGVPSRFSGSGSGTFYSLTISSVEAEDAADYYCHQWSGYMYTFGGGTKLEIK
# B7: 7-N20-A (antibody, V domains shown)
# VH: QVQLVETGGGLVRPGNSLKLSCVTSGFTFSNYRMHWLRQPPGKRLEWIGIITDKSDNYGANYAESVKGRFAISRDDSKSSVYLEMKRLREEDTATYFCSRDGYDWYFDLWGTGTTVTVSS
# VL: DIVMTQSHKFMSTSVGDRVRITCKASQDVGIVVAWYQQKPGQSPKLLIYWASTRHTGVPDRFTGSGSGTDFTLTISNVQSEDLADYFCQQYSSYPTFGGGTKLEIK
# Biological target: T1, SARS-CoV-2 S2 domain (SARS-CoV-2, UniProt P0DTC2 686-1213)
# Test: ELISA (FIG. 2C grouping)
row,Binder,binding result
1,B1,no binding
2,B2,no binding
3,B3,no binding
4,B4,no binding
5,B5,no binding
6,B6,no binding

# Biological target: T1, SARS-CoV-2 S2 domain
# Test: ELISA (FIG. 10 summary)
row,Binder,binding result
1,B7,no binding
